Experimental data taken from article PMC11879457 (Nucleic Acids Research, 2025).

Columns and labels:
SDS-PAGE = target: the molecule itself; experiment: SDS-PAGE
SEC = target: the molecule itself; experiment: SEC
YdaT (Rac prophage) = target: T1, YdaT (Rac prophage) (Escherichia coli K-12 MG1655 (Rac …, UniProt P76064 1-140)); experiment: DNase I footprinting
T1 sequence: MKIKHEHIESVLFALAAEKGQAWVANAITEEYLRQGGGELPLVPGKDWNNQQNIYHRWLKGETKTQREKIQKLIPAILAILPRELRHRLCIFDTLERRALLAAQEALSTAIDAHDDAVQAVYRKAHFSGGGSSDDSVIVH

YdaTmut (H56A R57A) = target: T2, YdaTmut (H56A R57A) (Escherichia coli K-12 MG1655 (Rac …, UniProt P76064 1-140, H56A;R57A)); experiment: DNase I footprinting
T2 sequence: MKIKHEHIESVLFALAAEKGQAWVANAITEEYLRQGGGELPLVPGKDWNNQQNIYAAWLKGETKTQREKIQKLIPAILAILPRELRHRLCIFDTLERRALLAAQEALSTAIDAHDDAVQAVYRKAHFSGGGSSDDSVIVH

Row | Binder | stoichiometry N (SDS-PAGE) | stoichiometry N (SEC) | binding result (YdaT (Rac prophage)) | binding result (YdaTmut (H56A R57A))
1 | N-terminally 6x His-tagged YdaT, wild type (Rac prophage transcription factor) (natural protein, E. coli K-12 (Rac prophage), UniProt P76064 1-140, looked up) MKIKHEHIESVLFALAAEKGQAWVANAITEEYLRQGGGELPLVPGKDWNNQQNIYHRWLKGETKTQREKIQKLIPAILAILPRELRHRLCIFDTLERRALLAAQEALSTAIDAHDDAVQAVYRKAHFSGGGSSDDSVIVH | 2 | 4 | – | –
2 | IGR footprint substrate (165 bp) (dsDNA) DNA 1: GCGCATTACATTAGGCAATCCCTACCCTTACTGCATTAGGCACAGCCTATTGACAATTGCGTTAGGCGTCGCCTAATATTTCTGTGTGTTTTTGGAGTTCATTCGATGAAAAAAGAGAACTATTCATTCAAGCAAGCTTGTGCTGTTGTCGGTGGGCAATCAGCA DNA 2: TGCTGATTGCCCACCGACAACAGCACAAGCTTGCTTGAATGAATAGTTCTCTTTTTTCATCGAATGAACTCCAAAAACACACAGAAATATTAGGCGACGCCTAACGCAATTGTCAATAGGCTGTGCCTAATGCAGTAAGGGTAGGGATTGCCTAATGTAATGCGC | – | – | binds | no binding
